According to article PMC5908791:

The substances below were run against human SOCS1 (residues 53-211) in complex with Elongins B and C (human) (UniProt O15524) (assay: ITC).

Row | Kd | Substance
1 | 2650 nM | IFNαR2 (pY269)
2 | 964 nM | IL-2Rβ (pY338)
3 | 614 nM | IL-2Rβ (pY355)
4 | 1030 nM | IL-2Rβ (pY392)
5 | 209 nM | IL-2Rβ (pY510)

The substances below were run against human JAK1 kinase domain (human) (UniProt P23458) (assay: not given).
Chain of UniProt P23458 (P23458 869-1153): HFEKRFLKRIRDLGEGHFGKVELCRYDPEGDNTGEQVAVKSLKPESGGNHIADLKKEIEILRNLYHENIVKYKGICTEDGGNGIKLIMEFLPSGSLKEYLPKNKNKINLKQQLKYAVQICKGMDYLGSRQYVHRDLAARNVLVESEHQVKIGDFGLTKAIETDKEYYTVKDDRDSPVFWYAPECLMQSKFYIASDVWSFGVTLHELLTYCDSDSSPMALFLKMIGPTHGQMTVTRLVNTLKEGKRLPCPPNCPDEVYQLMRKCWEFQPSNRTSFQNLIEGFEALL

Row | IC50 of inhibition of the JAK1 kinase domain phosphorylating a STAT5b-derived peptide (in vitro kinase assay) | Substance
6 | 30 nM | human SOCS1 (residues 53-211) in complex with Elongins B and C (from UniProt O15524 53-211; Q15370 1-118; Q15369 17-112)
